Laboratory results from patent US20240117334A1, “FACTOR B PROTEASES” (Vertex Pharmaceuticals Incorporated, priority 2021, published 2024).

What follows are binders tested against alpha-2-marcroglobin (A2M) (UniProt P01023) (assay: inhibition of the protease by the plasma inhibitor).
Sequence of alpha-2-marcroglobin (A2M) (P01023 24-1474): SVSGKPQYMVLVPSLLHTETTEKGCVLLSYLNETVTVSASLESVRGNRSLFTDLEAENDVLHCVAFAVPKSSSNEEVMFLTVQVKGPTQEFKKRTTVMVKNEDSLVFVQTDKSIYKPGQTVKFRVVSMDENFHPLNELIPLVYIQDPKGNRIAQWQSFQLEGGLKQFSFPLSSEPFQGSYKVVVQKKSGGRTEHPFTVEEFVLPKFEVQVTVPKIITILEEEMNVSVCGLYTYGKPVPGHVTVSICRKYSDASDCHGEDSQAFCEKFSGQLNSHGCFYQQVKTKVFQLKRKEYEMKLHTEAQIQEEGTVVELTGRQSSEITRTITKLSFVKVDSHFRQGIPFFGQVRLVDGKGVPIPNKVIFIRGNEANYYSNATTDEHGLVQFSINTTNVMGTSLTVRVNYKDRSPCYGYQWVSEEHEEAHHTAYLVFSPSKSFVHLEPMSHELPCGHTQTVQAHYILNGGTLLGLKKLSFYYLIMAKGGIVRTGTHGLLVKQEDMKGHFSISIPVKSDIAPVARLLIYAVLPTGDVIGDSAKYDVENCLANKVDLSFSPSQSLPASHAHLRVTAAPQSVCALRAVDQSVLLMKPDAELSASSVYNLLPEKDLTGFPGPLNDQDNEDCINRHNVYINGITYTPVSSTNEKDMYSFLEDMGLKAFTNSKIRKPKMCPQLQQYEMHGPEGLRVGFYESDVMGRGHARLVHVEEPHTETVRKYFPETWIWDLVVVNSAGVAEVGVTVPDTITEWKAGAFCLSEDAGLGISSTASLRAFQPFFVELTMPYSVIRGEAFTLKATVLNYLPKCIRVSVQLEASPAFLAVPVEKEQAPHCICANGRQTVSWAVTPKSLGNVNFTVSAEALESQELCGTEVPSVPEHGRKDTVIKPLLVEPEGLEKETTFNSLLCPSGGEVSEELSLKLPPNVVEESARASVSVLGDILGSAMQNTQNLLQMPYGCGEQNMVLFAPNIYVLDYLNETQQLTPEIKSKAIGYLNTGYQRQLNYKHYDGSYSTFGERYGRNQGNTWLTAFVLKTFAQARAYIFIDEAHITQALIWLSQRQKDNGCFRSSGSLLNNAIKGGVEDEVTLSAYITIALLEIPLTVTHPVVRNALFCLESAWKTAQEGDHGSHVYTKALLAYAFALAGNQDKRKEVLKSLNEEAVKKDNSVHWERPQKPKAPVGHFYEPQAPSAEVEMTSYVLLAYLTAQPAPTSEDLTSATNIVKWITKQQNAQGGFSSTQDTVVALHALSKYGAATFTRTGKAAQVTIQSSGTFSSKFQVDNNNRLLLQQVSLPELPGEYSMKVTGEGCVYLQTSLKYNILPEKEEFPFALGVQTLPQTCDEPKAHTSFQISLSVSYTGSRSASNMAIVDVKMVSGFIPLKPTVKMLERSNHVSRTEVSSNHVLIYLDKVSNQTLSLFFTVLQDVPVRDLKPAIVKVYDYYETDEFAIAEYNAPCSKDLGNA

Binder | kapp [M⁻¹ s⁻¹]
chymase C22S/L99H/F173Y/K192R/S218L/A226R (enzyme) IIGGTESKPHSRPYMAYLEIVTSNGPSKFCGGFLIRRNFVLTAAHCAGRSITVTLGAHNITEEEDTWQKLEVIKQFRHPKYNTSTHHHDIMLLKLKEKASLTLAVGTLPFPSQFNFVPPGRMCRVAGWGRTGVLKPGSDTLQEVKLRLMDPQACSHYRDFDHNLQLCVGNPRKTKSAFRGDSGGPLLCAGVAQGIVSYGRLDAKPPRVFTRISHYRPWINQILQAN | 356
chymase C22S/A226R (enzyme) IIGGTESKPHSRPYMAYLEIVTSNGPSKFCGGFLIRRNFVLTAAHCAGRSITVTLGAHNITEEEDTWQKLEVIKQFRHPKYNTSTLHHDIMLLKLKEKASLTLAVGTLPFPSQFNFVPPGRMCRVAGWGRTGVLKPGSDTLQEVKLRLMDPQACSHFRDFDHNLQLCVGNPRKTKSAFKGDSGGPLLCAGVAQGIVSYGRSDAKPPRVFTRISHYRPWINQILQAN | 812
chymase C22S/F41V/L99W/G151L/F173K/R217S/A226R (enzyme) IIGGTESKPHSRPYMAYLEIVTSNGPSKVCGGFLIRRNFVLTAAHCAGRSITVTLGAHNITEEEDTWQKLEVIKQFRHPKYNTSTWHHDIMLLKLKEKASLTLAVGTLPFPSQFNFVPPGRMCRVAGWGRTGVLKPLSDTLQEVKLRLMDPQACSHKRDFDHNLQLCVGNPRKTKSAFKGDSGGPLLCAGVAQGIVSYGSSDAKPPRVFTRISHYRPWINQILQAN | 329
chymase C22S/L99Y/F173Y/K192R/S218L/A226R (enzyme) IIGGTESKPHSRPYMAYLEIVTSNGPSKFCGGFLIRRNFVLTAAHCAGRSITVTLGAHNITEEEDTWQKLEVIKQFRHPKYNTSTYHHDIMLLKLKEKASLTLAVGTLPFPSQFNFVPPGRMCRVAGWGRTGVLKPGSDTLQEVKLRLMDPQACSHYRDFDHNLQLCVGNPRKTKSAFRGDSGGPLLCAGVAQGIVSYGRLDAKPPRVFTRISHYRPWINQILQAN | 3130
chymase C22S/F173Y/D175N/A226R (enzyme) IIGGTESKPHSRPYMAYLEIVTSNGPSKFCGGFLIRRNFVLTAAHCAGRSITVTLGAHNITEEEDTWQKLEVIKQFRHPKYNTSTLHHDIMLLKLKEKASLTLAVGTLPFPSQFNFVPPGRMCRVAGWGRTGVLKPGSDTLQEVKLRLMDPQACSHYRNFDHNLQLCVGNPRKTKSAFKGDSGGPLLCAGVAQGIVSYGRSDAKPPRVFTRISHYRPWINQILQAN | 645

These binders were tested against Human Factor B (human) (UniProt P00751) (assay: cell-based or functional assay).
Sequence of Human Factor B (human) (P00751 26-764 limits assumed): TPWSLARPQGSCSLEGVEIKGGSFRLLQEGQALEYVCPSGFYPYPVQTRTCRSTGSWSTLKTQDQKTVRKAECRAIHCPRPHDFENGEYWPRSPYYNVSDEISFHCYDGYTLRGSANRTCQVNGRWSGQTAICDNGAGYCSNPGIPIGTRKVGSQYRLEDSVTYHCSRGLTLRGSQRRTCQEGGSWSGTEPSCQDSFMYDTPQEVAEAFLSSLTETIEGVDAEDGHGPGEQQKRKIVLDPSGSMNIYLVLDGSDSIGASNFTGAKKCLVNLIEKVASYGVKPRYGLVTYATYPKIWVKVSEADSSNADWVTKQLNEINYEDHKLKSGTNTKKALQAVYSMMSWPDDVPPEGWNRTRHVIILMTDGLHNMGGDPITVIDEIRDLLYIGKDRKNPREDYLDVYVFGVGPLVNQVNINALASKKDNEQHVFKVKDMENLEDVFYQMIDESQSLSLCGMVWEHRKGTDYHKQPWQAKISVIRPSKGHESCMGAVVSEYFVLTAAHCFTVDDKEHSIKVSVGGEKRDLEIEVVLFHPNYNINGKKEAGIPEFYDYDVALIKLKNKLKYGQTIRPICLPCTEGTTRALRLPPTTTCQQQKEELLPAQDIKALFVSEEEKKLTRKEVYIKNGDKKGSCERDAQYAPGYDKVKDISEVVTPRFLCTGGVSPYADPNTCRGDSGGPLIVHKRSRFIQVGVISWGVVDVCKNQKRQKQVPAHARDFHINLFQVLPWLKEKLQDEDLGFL

Binder | fB Cleavage EC50 [µM] | fB Cleavage, 80% plasma EC50 [µM]
chymase C22S/S189T/A226R (enzyme) IIGGTESKPHSRPYMAYLEIVTSNGPSKFCGGFLIRRNFVLTAAHCAGRSITVTLGAHNITEEEDTWQKLEVIKQFRHPKYNTSTLHHDIMLLKLKEKASLTLAVGTLPFPSQFNFVPPGRMCRVAGWGRTGVLKPGSDTLQEVKLRLMDPQACSHFRDFDHNLQLCVGNPRKTKTAFKGDSGGPLLCAGVAQGIVSYGRSDAKPPRVFTRISHYRPWINQILQAN | 7.98 | 
chymase C22S/F173Y/A226R (enzyme) IIGGTESKPHSRPYMAYLEIVTSNGPSKFCGGFLIRRNFVLTAAHCAGRSITVTLGAHNITEEEDTWQKLEVIKQFRHPKYNTSTLHHDIMLLKLKEKASLTLAVGTLPFPSQFNFVPPGRMCRVAGWGRTGVLKPGSDTLQEVKLRLMDPQACSHYRDFDHNLQLCVGNPRKTKSAFKGDSGGPLLCAGVAQGIVSYGRSDAKPPRVFTRISHYRPWINQILQAN | 0.65 | 21
chymase C22S/S218I/A226R (enzyme) IIGGTESKPHSRPYMAYLEIVTSNGPSKFCGGFLIRRNFVLTAAHCAGRSITVTLGAHNITEEEDTWQKLEVIKQFRHPKYNTSTLHHDIMLLKLKEKASLTLAVGTLPFPSQFNFVPPGRMCRVAGWGRTGVLKPGSDTLQEVKLRLMDPQACSHFRDFDHNLQLCVGNPRKTKSAFKGDSGGPLLCAGVAQGIVSYGRIDAKPPRVFTRISHYRPWINQILQAN | 0.83 | 

These binders were tested against EGVD/AE-ACT (assay: reaction of the protease with the serpin bait EGVD/AE-ACT).

Binder | k*app (second order rate constant)
chymase C22S/L99H/F173I/K192R/Y215K/R217T/S218I/A226R (enzyme) IIGGTESKPHSRPYMAYLEIVTSNGPSKFCGGFLIRRNFVLTAAHCAGRSITVTLGAHNITEEEDTWQKLEVIKQFRHPKYNTSTHHHDIMLLKLKEKASLTLAVGTLPFPSQFNFVPPGRMCRVAGWGRTGVLKPGSDTLQEVKLRLMDPQACSHIRDFDHNLQLCVGNPRKTKSAFRGDSGGPLLCAGVAQGIVSKGTIDAKPPRVFTRISHYRPWINQILQAN | 1040
chymase C22S/A226R (enzyme) IIGGTESKPHSRPYMAYLEIVTSNGPSKFCGGFLIRRNFVLTAAHCAGRSITVTLGAHNITEEEDTWQKLEVIKQFRHPKYNTSTLHHDIMLLKLKEKASLTLAVGTLPFPSQFNFVPPGRMCRVAGWGRTGVLKPGSDTLQEVKLRLMDPQACSHFRDFDHNLQLCVGNPRKTKSAFKGDSGGPLLCAGVAQGIVSYGRSDAKPPRVFTRISHYRPWINQILQAN | 77
chymase C22S/F41R/L99H/G151T/F173Y/Y215K/R217M/A226R (enzyme) IIGGTESKPHSRPYMAYLEIVTSNGPSKRCGGFLIRRNFVLTAAHCAGRSITVTLGAHNITEEEDTWQKLEVIKQFRHPKYNTSTHHHDIMLLKLKEKASLTLAVGTLPFPSQFNFVPPGRMCRVAGWGRTGVLKPTSDTLQEVKLRLMDPQACSHYRDFDHNLQLCVGNPRKTKSAFKGDSGGPLLCAGVAQGIVSKGMSDAKPPRVFTRISHYRPWINQILQAN | 1500
chymase C22S/K192R/A226R (enzyme) IIGGTESKPHSRPYMAYLEIVTSNGPSKFCGGFLIRRNFVLTAAHCAGRSITVTLGAHNITEEEDTWQKLEVIKQFRHPKYNTSTLHHDIMLLKLKEKASLTLAVGTLPFPSQFNFVPPGRMCRVAGWGRTGVLKPGSDTLQEVKLRLMDPQACSHFRDFDHNLQLCVGNPRKTKSAFRGDSGGPLLCAGVAQGIVSYGRSDAKPPRVFTRISHYRPWINQILQAN | 147
chymase C22S/F41V/L99F/G151R/F173K/R217S/A226R (enzyme) IIGGTESKPHSRPYMAYLEIVTSNGPSKVCGGFLIRRNFVLTAAHCAGRSITVTLGAHNITEEEDTWQKLEVIKQFRHPKYNTSTFHHDIMLLKLKEKASLTLAVGTLPFPSQFNFVPPGRMCRVAGWGRTGVLKPRSDTLQEVKLRLMDPQACSHKRDFDHNLQLCVGNPRKTKSAFKGDSGGPLLCAGVAQGIVSYGSSDAKPPRVFTRISHYRPWINQILQAN | 652
chymase F41V/L99H/G151V/F173Y/Y215K/R217G/A226R (enzyme) IIGGTECKPHSRPYMAYLEIVTSNGPSKVCGGFLIRRNFVLTAAHCAGRSITVTLGAHNITEEEDTWQKLEVIKQFRHPKYNTSTHHHDIMLLKLKEKASLTLAVGTLPFPSQFNFVPPGRMCRVAGWGRTGVLKPVSDTLQEVKLRLMDPQACSHYRDFDHNLQLCVGNPRKTKSAFKGDSGGPLLCAGVAQGIVSKGGSDAKPPRVFTRISHYRPWINQILQAN | 649
chymase C22S (enzyme) IIGGTESKPHSRPYMAYLEIVTSNGPSKFCGGFLIRRNFVLTAAHCAGRSITVTLGAHNITEEEDTWQKLEVIKQFRHPKYNTSTLHHDIMLLKLKEKASLTLAVGTLPFPSQFNFVPPGRMCRVAGWGRTGVLKPGSDTLQEVKLRLMDPQACSHFRDFDHNLQLCVGNPRKTKSAFKGDSGGPLLCAGVAQGIVSYGRSDAKPPAVFTRISHYRPWINQILQAN | 30.2
chymase C22S/F41I/L99W/G151L/F173K/R217S/A226R (enzyme) IIGGTESKPHSRPYMAYLEIVTSNGPSKICGGFLIRRNFVLTAAHCAGRSITVTLGAHNITEEEDTWQKLEVIKQFRHPKYNTSTWHHDIMLLKLKEKASLTLAVGTLPFPSQFNFVPPGRMCRVAGWGRTGVLKPLSDTLQEVKLRLMDPQACSHKRDFDHNLQLCVGNPRKTKSAFKGDSGGPLLCAGVAQGIVSYGSSDAKPPRVFTRISHYRPWINQILQAN | 1730
chymase C22S/F41V/L99W/G151L/F173K/R217S/A226R (enzyme) IIGGTESKPHSRPYMAYLEIVTSNGPSKVCGGFLIRRNFVLTAAHCAGRSITVTLGAHNITEEEDTWQKLEVIKQFRHPKYNTSTWHHDIMLLKLKEKASLTLAVGTLPFPSQFNFVPPGRMCRVAGWGRTGVLKPLSDTLQEVKLRLMDPQACSHKRDFDHNLQLCVGNPRKTKSAFKGDSGGPLLCAGVAQGIVSYGSSDAKPPRVFTRISHYRPWINQILQAN | 1360
chymase C22S/F41R/L99Y/G151T/F173K/R217S/A226R (enzyme) IIGGTESKPHSRPYMAYLEIVTSNGPSKRCGGFLIRRNFVLTAAHCAGRSITVTLGAHNITEEEDTWQKLEVIKQFRHPKYNTSTYHHDIMLLKLKEKASLTLAVGTLPFPSQFNFVPPGRMCRVAGWGRTGVLKPTSDTLQEVKLRLMDPQACSHKRDFDHNLQLCVGNPRKTKSAFKGDSGGPLLCAGVAQGIVSYGSSDAKPPRVFTRISHYRPWINQILQAN | 684
chymase C22S/F41V/L99H/G151R/F173L/Y215R/R217T/A226R (enzyme) IIGGTESKPHSRPYMAYLEIVTSNGPSKVCGGFLIRRNFVLTAAHCAGRSITVTLGAHNITEEEDTWQKLEVIKQFRHPKYNTSTHHHDIMLLKLKEKASLTLAVGTLPFPSQFNFVPPGRMCRVAGWGRTGVLKPRSDTLQEVKLRLMDPQACSHLRDFDHNLQLCVGNPRKTKSAFKGDSGGPLLCAGVAQGIVSRGTSDAKPPRVFTRISHYRPWINQILQAN | 1130
chymase C22S/F41R/L99G/G151T/F173Y/Y215R/R217M/A226R (enzyme) IIGGTESKPHSRPYMAYLEIVTSNGPSKRCGGFLIRRNFVLTAAHCAGRSITVTLGAHNITEEEDTWQKLEVIKQFRHPKYNTSTGHHDIMLLKLKEKASLTLAVGTLPFPSQFNFVPPGRMCRVAGWGRTGVLKPTSDTLQEVKLRLMDPQACSHYRDFDHNLQLCVGNPRKTKSAFKGDSGGPLLCAGVAQGIVSRGMSDAKPPRVFTRISHYRPWINQILQAN | 773
